Test results taken from patent publication US20240018513A1, “SYNTHETIC INTRONS FOR TARGETED GENE EXPRESSION” (FRED HUTCHINSON CANCER CENTER, priority 2020, published 2024).

Legend:
[1] = system: MEL202 cells (SF3B1R625G); assay: RT-PCR of synthetic intron excision in uveal melanoma cells; format: cell-based; conditions: endogenous SF3B1R625G
Excerpt: FIGS. 9A-9H: Branchpoint manipulation and combinatorial 3′ss mutations enhance SF3B1 mutation-dependent splicing. (9A) Diagrams of modifications in each intron relative to synMTERFD3i1-150. Deletions are specified as open intervals. Branchpoints were inserted in between the indicated positions. (9B) Relative viability of K562 cells expressing the indicated constructs, measured in the full screen. Relative viability estimated as fold-change in representation of each construct, measured by full-length intron sequencing from genomic DNA, at day 8 for GCV-treated relative to untreated samples. GCV concentration, 100 ug/mL. Vector is hPGK-PuroR-P2A-HSV-TK. Data represented as mean±s.d. Standard deviation was estimated as sample proportion standard deviation. (9C) Relative viability of K562 cells expressing the indicated constructs, measured in cells expressing each construct individually. […] Relative viability measured by ATP after 11 days of treatment and normalized to PBS-treated samples. […]
Total RNA was extracted using Direct-zol RNA Miniprep (Zymo Research). cDNA was synthesized using Superscript IV Reverse Transcriptase (Thermo Fisher Scientific) using the manufacturer's protocol. Amplicons were analyzed using agarose gel electrophoresis and quantified using ImageJ (Fiji). […]

MOLM-13 cells = assay: MOLM-13 xenografts (intravenous), doxycycline-inducible SF3B1 WT or K700E, GCV or PBS; format: in vivo, NSG mice; conditions: GCV-treated arm engrafted with SF3B1K700E-expressing MOLM-13 cells
Excerpt: FIGS. 4A-4I: Synthetic introns enable mutation-dependent cancer cell targeting in vivo. (4A) Schematic of xenograft experiments with K562 cells expressing Luciferase and HSV-TK interrupted by synMTERFD3i1-150. K562 cells were intravenously injected into sub-lethally irradiated (250 cGy) NOD-scid IL2rgnull (NSG) mice (2M cells/mouse). n=10 (WT) and 9 (SF3B1-mutant) mice per cohort. (4B) Quantification of tumor burden, estimated by whole-body bioluminescent signal. Each point represents a single mouse. (4C) Representative bioluminescence images from cohorts described in (4A). (4D) Survival of mice from cohort described in (4A). p computed with logrank test. Comparisons not illustrated on plot are not significant (p+/+ GCV vs. PBS=0.534; pK700E/+PBS vs.+/+PBS=0.823). The cause of death for the one GCV-treated animal engrafted with an SF3B1-mutant leukemia which died by experiment endpoint was unclear, as this animal had minimal leukemic burden by imaging or necropsy. (4E) Survival curves of NSG mice engrafted with SF3B1 WT (top) or SF3B1 K700E (bottom) MOLM-13 cells expressing Luciferase and HSV-TK interrupted by synMTERFD3i1-150 followed by treatment with either PBS or GCV. pK700E/+ PBS vs. pK700E/+GCV=0.011. n=10 mice/group. […]
Next, the potential efficacy of using synthetic introns was tested in other cancer models. […] Leukemia burden and survival were monitored. […]

T47D cells = assay: T47D subcutaneous xenografts, doxycycline-inducible SF3B1 WT or K700E, GCV or PBS; format: in vivo, NSG mice; conditions: GCV vs PBS

B1: intron_26: 150 nt MTERFD3 intron 1-derived synthetic intron, deletion 25to125; SEQ ID NO 58/66 (nucleic acid)
DNA 1: GTGAGTCGCCCCCTTCCTCTGCTCCGAGAGGGAAATGGGAATTAGGGTGGTGGCAGAGCCCAAAGAGGCCTTGTAGGCCATGGTAAGGCATTTCTATGTTTTATTTTACTTTGTCTTTATCCTAAAATGCCATTGGCAAGTTTATTGCAG
DNA 2: B1 DNA 1
excision / splicing of the synthetic intron (RT-PCR) [1]: excised in the context of endogenous SF3B1R625G, although less efficiently than for SF3B1K700E | survival and tumor burden (MOLM-13 cells): significantly prolonged survival and reduced tumor burden | tumor burden (tumor volume) (T47D cells): specifically reduced tumor burden in the GCV-treated arm engrafted with SF3B1K700E-expressing cells
